From PMC3323580

How the values were obtained:
Test in all cases: SPR; C3b (1620 RU), C4b (1518 RU) and C1q (2125 RU) amine-coupled on three flow cells of one CM5 chip; CR1 fragments flowed at 30 µl/min, Biacore T100, 25°C, HBS-EP pH 7.4 (10 mM Hepes, 150 mM saline, 3 mM EDTA, 0.05% polysorbate 20); steady-state fit, one-to-one model; duplicates
[1] = biological target: C1q, classical complement pathway protein (UniProt P02745)
[2] = biological target: C3b, complement-activation fragment of C3
[3] = biological target: C4b, complement-activation fragment of C4

Sequence of C1q, classical complement pathway protein (P02745 23-245, chain 1 of 3): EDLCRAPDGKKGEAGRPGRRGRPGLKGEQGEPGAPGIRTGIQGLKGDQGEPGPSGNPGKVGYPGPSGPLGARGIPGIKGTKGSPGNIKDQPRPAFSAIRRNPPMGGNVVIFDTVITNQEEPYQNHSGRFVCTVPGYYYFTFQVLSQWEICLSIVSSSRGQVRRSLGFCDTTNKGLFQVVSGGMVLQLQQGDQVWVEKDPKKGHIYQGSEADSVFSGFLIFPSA
Sequence of C1q, classical complement pathway protein (P02746 28-253, chain 2 of 3, further chain): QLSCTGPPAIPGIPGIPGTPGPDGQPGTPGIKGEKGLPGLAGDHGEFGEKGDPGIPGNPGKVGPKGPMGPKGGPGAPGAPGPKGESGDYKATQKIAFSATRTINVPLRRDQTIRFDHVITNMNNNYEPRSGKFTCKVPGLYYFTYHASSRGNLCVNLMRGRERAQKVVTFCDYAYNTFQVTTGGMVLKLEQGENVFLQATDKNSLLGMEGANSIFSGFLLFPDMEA
Sequence of C1q, classical complement pathway protein (P02747 29-245, chain 3 of 3, further chain): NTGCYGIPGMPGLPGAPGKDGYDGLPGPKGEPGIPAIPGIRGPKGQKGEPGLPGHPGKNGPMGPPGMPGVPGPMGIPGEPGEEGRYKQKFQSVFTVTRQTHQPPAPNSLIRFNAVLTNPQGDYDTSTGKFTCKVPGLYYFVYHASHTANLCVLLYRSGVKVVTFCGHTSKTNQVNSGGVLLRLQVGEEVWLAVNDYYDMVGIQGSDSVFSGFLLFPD

Substance | Kd [1] [µM] | Kd [2] [nM] | Kd [3] [µM]
CR1 1–3 (site 1), complement receptor-type 1 CCPs 1–3 (domain or fragment) | 30.9 | 38000 | 11.2
CR1 15–17 (site 2), complement receptor-type 1 CCPs 15–17 (domain or fragment) | 0.82 | 1060 | 3.2
CR1 15–25(ER), complement receptor-type 1 CCPs 15–25, Glu1590/Arg1601 variant (domain or fragment) | 5.7 | 1090 | 5.3
CR1 15–25(KG), complement receptor-type 1 CCPs 15–25, Lys1590/Gly1601 variant (domain or fragment) | 5.5 | 1050 | 5.2

These reach a lower Kd [2]. Values come first.

Kd [1] [µM] | Kd [2] [nM] | Kd [3] [µM] | Substance
5.1 | 800 | 5 | CR1 15–25(EG), complement receptor-type 1 CCPs 15–25, Glu1590/Gly1601 variant (domain or fragment)
5.7 | 990 | 5.1 | CR1 15–25(KR), complement receptor-type 1 CCPs 15–25, Lys1590/Arg1601 variant (domain or fragment)
– | 530 | 0.91 | soluble CR1 (sCR1), full-length ectodomain of complement receptor-type 1 (from UniProt P17927 42-1971)
